Results as given in patent publication WO2018095932A1 (dated 2018).
Where a chain is given by its changes, count along the chain named.

Legend:
[1] = target: T1, human FGFR1b-IIIc extracellular domain with a His tag (human, UniProt P11362 22-376); test: ELISA, IgG1 format
T1 construct: also called huFGFR1b-IIIc; FGFR1-IIIc
T1 sequence: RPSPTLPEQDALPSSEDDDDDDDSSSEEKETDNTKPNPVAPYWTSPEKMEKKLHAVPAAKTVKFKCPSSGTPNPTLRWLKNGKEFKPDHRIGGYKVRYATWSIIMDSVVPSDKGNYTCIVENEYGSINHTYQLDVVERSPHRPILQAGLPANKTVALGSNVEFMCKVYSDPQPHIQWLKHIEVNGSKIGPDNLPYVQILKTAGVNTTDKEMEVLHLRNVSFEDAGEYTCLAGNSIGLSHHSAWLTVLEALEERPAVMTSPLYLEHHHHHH

[2] = target: T2, human FGFR1b-IIIb extracellular domain with a His tag (human); test: ELISA, IgG1 format
T2 construct: also called huFGFR1b-IIIb; FGFR1-IIIb
T2 chain: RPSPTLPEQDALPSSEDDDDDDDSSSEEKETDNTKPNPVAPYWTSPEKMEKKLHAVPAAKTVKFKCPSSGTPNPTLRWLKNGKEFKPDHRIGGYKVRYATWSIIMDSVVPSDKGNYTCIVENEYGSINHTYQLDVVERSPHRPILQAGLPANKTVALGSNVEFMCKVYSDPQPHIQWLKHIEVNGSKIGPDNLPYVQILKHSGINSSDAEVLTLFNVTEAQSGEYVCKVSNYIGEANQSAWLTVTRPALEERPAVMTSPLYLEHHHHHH

[3] = target: T3, human FGFR1 (FGFR1b-IIIb or FGFR1b-IIIc, not stated which) (human, UniProt P11362 22-376); test: ELISA on coated human FGFR1b (IIIb or IIIc, not stated which), IgG1 format
T3 chain: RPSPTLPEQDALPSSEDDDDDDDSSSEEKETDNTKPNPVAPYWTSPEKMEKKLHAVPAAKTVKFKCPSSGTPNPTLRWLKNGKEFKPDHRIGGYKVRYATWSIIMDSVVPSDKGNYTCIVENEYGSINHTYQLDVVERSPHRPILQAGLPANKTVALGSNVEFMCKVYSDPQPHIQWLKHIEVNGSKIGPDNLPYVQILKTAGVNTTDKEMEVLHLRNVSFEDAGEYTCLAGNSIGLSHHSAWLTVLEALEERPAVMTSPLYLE

[4] = target: T3, human FGFR1 (FGFR1b-IIIb or …); test: ELISA on coated human FGFR1b (IIIb or IIIc, not stated which)
[5] = target: T1, human FGFR1b-IIIc extracellular domain …; test: SPR (BIAcore 4000), antibody captured by anti-human Fc, His-tagged FGFR1 injected
[6] = target: T2, human FGFR1b-IIIb extracellular domain …; test: as above
FGFR1 of NCI-H520 cells = FGFR1 of NCI-H520 cells (UniProt P11362 22-822); test: cell-based or functional assay
Human FGFR1 D2-His6 = target: T4, Human FGFR1 D2-His6 (human, UniProt P11362 22-254); test: ELISA
T4 construct: also called D2 domain; wild-type D2
T4 sequence: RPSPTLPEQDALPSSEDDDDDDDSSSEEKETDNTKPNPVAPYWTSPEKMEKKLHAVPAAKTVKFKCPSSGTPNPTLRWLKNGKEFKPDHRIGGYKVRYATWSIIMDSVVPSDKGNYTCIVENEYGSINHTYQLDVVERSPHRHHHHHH

[7] = target: T2, human FGFR1b-IIIb extracellular domain …; test: ELISA

Sequence of FGFR1 of NCI-H520 cells (P11362 22-822): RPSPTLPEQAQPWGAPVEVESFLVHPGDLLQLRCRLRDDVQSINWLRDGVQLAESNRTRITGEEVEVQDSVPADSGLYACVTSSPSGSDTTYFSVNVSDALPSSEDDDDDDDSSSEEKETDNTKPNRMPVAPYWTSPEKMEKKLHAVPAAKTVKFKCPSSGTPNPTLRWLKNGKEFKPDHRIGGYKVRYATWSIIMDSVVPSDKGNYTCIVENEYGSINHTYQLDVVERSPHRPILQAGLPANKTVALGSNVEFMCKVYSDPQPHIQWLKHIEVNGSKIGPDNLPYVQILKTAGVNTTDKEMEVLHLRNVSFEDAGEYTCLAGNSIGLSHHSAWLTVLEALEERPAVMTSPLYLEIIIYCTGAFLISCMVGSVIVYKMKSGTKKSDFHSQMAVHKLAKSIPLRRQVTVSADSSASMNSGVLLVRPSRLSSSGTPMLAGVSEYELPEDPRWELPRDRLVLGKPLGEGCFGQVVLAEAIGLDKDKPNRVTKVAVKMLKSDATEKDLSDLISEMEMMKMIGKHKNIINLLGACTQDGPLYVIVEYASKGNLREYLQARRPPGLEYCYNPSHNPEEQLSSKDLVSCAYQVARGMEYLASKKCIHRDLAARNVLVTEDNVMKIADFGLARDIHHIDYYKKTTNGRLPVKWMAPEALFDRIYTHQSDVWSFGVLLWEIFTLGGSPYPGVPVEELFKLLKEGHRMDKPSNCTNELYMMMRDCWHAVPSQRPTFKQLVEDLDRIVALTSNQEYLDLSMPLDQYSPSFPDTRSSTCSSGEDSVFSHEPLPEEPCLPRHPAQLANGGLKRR

B1: mAb #A02 in the IgG1 format (antibody, V domains shown)
VH: QVQLQESGPGLVKPSGTLSLTCAVSGGSISSNNWWSWVRQPPGKGLEWIGEIYHSGSTSYNPSLKSRVTISVDKSKNQFSLKLSSVTAADTAVYYCARATDWFDLWGQGTLVTVSS
VL: SYVLTQPPSVSVAPGQTARITCGGNNIGSESVHWYQQKPGQAPVLVVYDDSDRPSGIPERFSGSNSGNTATLTISRVEAGDEADYYCQVWDSTSDHRVFGGGTKLTVL
binding result [1]: binds
binding result [2]: binds

B2: #A08 lead IgG1 antibody (bivalent) (antibody, V domains shown)
VH: B1 VH with Q1E, A99G, L105P
VL: SYVLTQPPSVSVAPGQTARITCGGNNIGSESVHWYQQKPGQAPVLVVYDDSDRPSGIPERFSGSNSGNTATLTISRVEAGDEADYYCQVWDSTSDHRVFGGGTKLTVLG
notes: also called lgG1 (bivalent) format of #A08; #A08 lead-lgG1 m3 antibody
EC50 [3]: 0.008 nM

B3: mAb #D01 in the IgG1 format (antibody, V domains shown)
VH: B1 VH with L105H
VL: B2 VL
EC50 [4]: 0.015 nM

B4: mAb #A08 (#A08 hit), anti-FGFR1 antibody (antibody, V domains shown)
VH: B1 VH with Q1E, S84N, A99G, L105P
VL: B1 VL with S1Q, Y2A
notes: also called imAb #A08; clone #A08
Kd [5]: 0.017 nM
Kd [6]: 0.01 nM
IC50 of inhibition of FGF1-induced pFGFR1 in NCI-H520 cells (FGFR1 of NCI-H520 cells): 4 nM
IC50 of inhibition of FGF2-induced pFGFR1 in NCI-H520 cells (FGFR1 of NCI-H520 cells): 0.2 nM

B5: mAb #C01 in the IgG1 format (antibody, V domains shown)
VH: B1 VH with L105A
VL: B1 VL
binding result [1]: binds
binding result [2]: binds

B6: mAb #A05 (#A05 hit), anti-FGFR1 antibody (antibody, IgG1, V domains shown)
VH: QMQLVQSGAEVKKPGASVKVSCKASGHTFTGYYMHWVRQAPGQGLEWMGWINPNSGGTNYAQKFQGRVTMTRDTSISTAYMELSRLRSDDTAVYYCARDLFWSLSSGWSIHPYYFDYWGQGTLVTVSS
VL: QSALTQPASVSGSPGQSITISCTGTSSDVGSYNLVSWYQQHPGKAPKLMIYGGSKRPSGVPDRFSGSKSDTSASLTISGLQAEDEADYYCCSYTYNGDVFGTGTKVTVL
notes: also called imAb #A05
Kd [5]: 0.01 nM
binding result (Human FGFR1 D2-His6): no binding
binding result [7]: binds
IC50 of inhibition of FGF1-induced pFGFR1 in NCI-H520 cells (FGFR1 of NCI-H520 cells): 1 nM
IC50 of inhibition of FGF2-induced pFGFR1 in NCI-H520 cells (FGFR1 of NCI-H520 cells): 1 nM

B7: monovalent SEEDbody #A08 (antibody)
heavy: EVQLQESGPGLVKPSGTLSLTCAVSGGSISSNNWWSWVRQPPGKGLEWIGEIYHSGSTSYNPSLKSRVTISVDKSKNQFSLKLSSVTAADTAVYYCARGTDWFDPWGQGTLVTVSSASTKGPSVFPLAPSSKSTSGGTAALGCLVKDYFPEPVTVSWNSGALTSGVHTFPAVLQSSGLYSLSSVVTVPSSSLGTQTYICNVNHKPSNTKVDKRVEPKSCDKTHTCPPCPAPELLGGPSVFLFPPKPKDTLMISRTPEVTCVVVDVSHEDPEVKFNWYVDGVEVHNAKTKPREEQYNSTYRVVSVLTVLHQDWLNGKEYKCKVSNKALPAPIEKTISKAKGQPFRPEVHLLPPSREEMTKNQVSLTCLARGFYPKDIAVEWESNGQPENNYKTTPSRQEPSQGTTTFAVTSKLTVDKSRWQQGNVFSCSVMHEALHNHYTQKTISLSPG
chain: EPKSSDKTHTCPPCPAPELLGGPSVFLFPPKPKDTLMISRTPEVTCVVVDVSHEDPEVKFNWYVDGVEVHNAKTKPREEQYNSTYRVVSVLTVLHQDWLNGKEYKCKVSNKALPAPIEKTISKAKGQPREPQVYTLPPPSEELALNELVTLTCLVKGFYPSDIAVEWLQGSQELPREKYLTWAPVLDSDGSFFLYSILRVAAEDWKKGDTFSCSVMHEALHNHYTQKSLDRSPG
light: SYVLTQPPSVSVAPGQTARITCGGNNIGSESVHWYQQKPGQAPVLVVYDDSDRPSGIPERFSGSNSGNTATLTISRVEAGDEADYYCQVWDSTSDHRVFGGGTKLTVLGQPKAAPSVTLFPPSSEELQANKATLVCLISDFYPGAVTVAWKADSSPVKAGVETTTPSKQSNNKYAASSYLSLTPEQWKSHKSYSCQVTHEGSTVEKTVAPTECS
IC50 of inhibition of FGF1-induced pFGFR1 in NCI-H520 cells (FGFR1 of NCI-H520 cells): 70 nM
IC50 of inhibition of FGF2-induced pFGFR1 in NCI-H520 cells (FGFR1 of NCI-H520 cells): 6 nM
IC50 of inhibition of pFGFR1 in NCI-H520 cells in the absence of ligand (FGFR1 of NCI-H520 cells): 20 nM
fold change of pFGFR1 inhibition IC50, monovalent against bivalent format (FGFR1 of NCI-H520 cells): ~10 fold
